From publication doi:10.1101/2020.12.30.424835 (bioRxiv, 2020)

Columns and labels:
[1] = target: T1, Ctf3 complex (Ctf3, Mcm16, Mcm22), wild type, recombinant (yeast, UniProt Q12748;Q12262;P47167); experiment: fluorescence polarisation
[2] = target: T1, Ctf3 complex (Ctf3, Mcm16, Mcm22), wild …; experiment: pull-down

T1 sequence (Q12748 whole entry, chain 1 of 3): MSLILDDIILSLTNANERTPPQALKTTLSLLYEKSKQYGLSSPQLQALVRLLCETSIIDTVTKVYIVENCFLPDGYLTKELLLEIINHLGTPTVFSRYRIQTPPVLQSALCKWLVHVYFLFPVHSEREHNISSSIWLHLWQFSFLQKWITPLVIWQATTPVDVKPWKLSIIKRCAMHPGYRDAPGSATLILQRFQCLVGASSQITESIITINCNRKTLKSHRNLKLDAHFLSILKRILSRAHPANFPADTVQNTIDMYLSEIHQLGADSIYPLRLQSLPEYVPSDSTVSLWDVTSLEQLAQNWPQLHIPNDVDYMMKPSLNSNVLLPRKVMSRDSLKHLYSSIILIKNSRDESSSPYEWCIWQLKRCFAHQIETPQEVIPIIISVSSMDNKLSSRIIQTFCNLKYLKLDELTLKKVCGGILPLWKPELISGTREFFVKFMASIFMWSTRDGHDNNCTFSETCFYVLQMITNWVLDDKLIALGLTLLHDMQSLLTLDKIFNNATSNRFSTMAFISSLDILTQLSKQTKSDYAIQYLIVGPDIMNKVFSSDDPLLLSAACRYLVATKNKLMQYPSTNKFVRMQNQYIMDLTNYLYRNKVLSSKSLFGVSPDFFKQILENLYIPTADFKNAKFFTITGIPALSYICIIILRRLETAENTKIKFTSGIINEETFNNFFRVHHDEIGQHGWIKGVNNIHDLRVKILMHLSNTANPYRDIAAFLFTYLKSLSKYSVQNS
T1 sequence (Q12262 whole entry, chain 2 of 3): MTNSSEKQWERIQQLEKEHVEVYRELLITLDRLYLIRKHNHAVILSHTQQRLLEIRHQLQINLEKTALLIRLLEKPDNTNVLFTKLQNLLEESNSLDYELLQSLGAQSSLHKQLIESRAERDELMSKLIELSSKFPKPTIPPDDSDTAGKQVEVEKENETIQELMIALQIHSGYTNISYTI
T1 sequence (P47167 whole entry, chain 3 of 3): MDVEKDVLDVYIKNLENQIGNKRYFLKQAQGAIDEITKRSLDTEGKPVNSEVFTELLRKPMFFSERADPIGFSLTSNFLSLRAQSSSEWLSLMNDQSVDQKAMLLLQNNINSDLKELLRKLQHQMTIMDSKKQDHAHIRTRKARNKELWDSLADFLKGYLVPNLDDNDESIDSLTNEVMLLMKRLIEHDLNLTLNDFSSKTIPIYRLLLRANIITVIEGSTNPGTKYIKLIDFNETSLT

| Binder | Kd [1] | binding result [2] |
| --- | --- | --- |
| DDSDVNLIGSS (fITC-AHA on the N-terminus) [FITC-Ulp2-KIM peptide (fITC-AHA-DDSDVNLIGSS; Ulp2-927-937)] | ~900 nM |  |
| ADSDVNLIGSS (domain or fragment) [GST-Ulp2-KIM 1DA-1 (minimal KIM, D927A)] |  | binds |
| DDSDVALIGSS (domain or fragment) [GST-Ulp2-927-937 N932A] |  | binds |
| DDSDVNLIGSS (domain or fragment) [GST-Ulp2-927-937 (minimal Ulp2-KIM, wild type)] |  | binds |
